The values that follow come from PMC5037378.

The target of the assay is Aggrecan (UniProt P13608). In words: solid phase binding assay (ELISA-type, HRP anti-human IgG Fc, OPD colorimetric). Conditions: PTPσ-Fc 80 nM, wells coated with aggrecan 10 μg/ml, read off a plot.
Sequence of UniProt P13608 (P13608 17-2364): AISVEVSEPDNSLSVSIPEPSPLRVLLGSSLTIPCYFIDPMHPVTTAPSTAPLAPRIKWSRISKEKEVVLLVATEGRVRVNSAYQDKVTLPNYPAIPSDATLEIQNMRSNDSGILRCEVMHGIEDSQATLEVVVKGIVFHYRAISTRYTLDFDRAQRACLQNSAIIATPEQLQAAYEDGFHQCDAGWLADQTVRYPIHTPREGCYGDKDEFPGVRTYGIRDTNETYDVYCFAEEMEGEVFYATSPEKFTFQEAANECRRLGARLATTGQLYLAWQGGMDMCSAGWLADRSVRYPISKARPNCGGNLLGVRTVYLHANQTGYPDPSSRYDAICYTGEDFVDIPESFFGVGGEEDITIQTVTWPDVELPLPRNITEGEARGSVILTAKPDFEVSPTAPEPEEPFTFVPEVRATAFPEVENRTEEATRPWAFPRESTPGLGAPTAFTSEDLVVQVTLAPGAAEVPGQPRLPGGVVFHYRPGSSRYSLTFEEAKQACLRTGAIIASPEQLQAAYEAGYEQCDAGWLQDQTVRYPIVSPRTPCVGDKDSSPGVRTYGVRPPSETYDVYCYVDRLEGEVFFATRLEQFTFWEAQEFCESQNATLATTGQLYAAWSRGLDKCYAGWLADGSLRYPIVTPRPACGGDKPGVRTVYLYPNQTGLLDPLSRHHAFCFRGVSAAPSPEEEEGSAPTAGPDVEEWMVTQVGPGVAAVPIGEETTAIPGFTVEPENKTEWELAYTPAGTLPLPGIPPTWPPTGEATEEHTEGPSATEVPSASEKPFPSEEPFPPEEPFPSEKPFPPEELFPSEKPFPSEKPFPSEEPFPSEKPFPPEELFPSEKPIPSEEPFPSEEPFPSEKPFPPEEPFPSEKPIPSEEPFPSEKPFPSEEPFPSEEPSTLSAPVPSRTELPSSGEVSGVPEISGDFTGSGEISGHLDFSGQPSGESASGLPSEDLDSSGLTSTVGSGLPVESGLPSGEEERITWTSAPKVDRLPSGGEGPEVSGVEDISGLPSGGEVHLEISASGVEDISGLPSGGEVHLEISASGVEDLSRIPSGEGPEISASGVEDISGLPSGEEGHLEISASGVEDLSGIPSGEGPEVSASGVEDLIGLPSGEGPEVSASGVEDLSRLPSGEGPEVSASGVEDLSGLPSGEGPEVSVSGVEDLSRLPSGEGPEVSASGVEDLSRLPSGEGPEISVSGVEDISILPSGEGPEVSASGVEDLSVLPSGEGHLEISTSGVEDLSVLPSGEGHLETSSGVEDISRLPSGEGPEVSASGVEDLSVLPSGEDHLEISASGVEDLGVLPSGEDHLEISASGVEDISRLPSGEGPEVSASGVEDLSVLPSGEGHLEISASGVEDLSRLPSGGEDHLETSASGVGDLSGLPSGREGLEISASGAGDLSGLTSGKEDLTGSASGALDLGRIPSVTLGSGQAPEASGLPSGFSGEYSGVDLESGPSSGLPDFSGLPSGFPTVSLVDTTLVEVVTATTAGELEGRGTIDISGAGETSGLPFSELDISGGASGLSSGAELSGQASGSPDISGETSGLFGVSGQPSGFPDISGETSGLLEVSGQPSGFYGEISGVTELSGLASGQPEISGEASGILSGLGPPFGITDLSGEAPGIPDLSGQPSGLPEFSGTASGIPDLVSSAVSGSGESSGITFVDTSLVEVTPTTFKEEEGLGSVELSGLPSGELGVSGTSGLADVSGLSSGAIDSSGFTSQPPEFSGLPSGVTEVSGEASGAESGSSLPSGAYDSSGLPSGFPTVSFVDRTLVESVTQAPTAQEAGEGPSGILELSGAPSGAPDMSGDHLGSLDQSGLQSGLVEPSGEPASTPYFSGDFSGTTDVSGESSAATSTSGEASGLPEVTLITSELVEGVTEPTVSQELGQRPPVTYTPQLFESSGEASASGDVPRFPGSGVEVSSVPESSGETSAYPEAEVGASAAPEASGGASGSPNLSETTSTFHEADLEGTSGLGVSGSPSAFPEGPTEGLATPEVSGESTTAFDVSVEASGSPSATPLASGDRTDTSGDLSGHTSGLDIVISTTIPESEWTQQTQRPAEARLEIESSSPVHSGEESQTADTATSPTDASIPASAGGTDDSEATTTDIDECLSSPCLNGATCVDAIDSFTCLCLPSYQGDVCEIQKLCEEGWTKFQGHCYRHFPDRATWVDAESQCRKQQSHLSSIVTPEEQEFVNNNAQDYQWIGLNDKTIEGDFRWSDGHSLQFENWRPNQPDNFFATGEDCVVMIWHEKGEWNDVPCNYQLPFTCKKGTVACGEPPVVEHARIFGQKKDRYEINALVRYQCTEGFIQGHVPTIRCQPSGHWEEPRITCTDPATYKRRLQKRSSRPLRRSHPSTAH

For the substance “PTPσ (protein tyrosine phosphatase sigma) N-terminal extracellular part with the three Ig domains, Fc-tagged, wild type (from UniProt B0V2N1) PTPσ mutant (lacks the CS binding site; substitutions not printed)”, the response is, setting by setting: (HB-GAM 0 nM, parent: est. 1.2) 0.081 A450; (HB-GAM 10 nM, parent: est. 0.88) 0.085 A450; (HB-GAM 20 nM, parent: est. 0.64) 0.085 A450; (HB-GAM 40 nM, parent: est. 0.43) 0.084 A450; (HB-GAM 80 nM, parent: est. 0.31) 0.083 A450; (HB-GAM 160 nM, parent: est. 0.25) 0.083 A450. In addition, the response (HB-GAM 320 nM, parent: est. 0.23) came to 0.084 A450.
